Experiment [1] deals with HSP70 (antigen; source and nucleotide state not stated) (Homo sapiens (Human)) (UniProt P0DMV8). The experiment is described as follows: Octet epitope binning, sandwich format on HSP70; table row m77A (named as competitor), column C92F3-5; the sheet does not say which of row and column was loaded first. Background: BLI is a label-free optical method that tracks binding on a fibre tip over time.

For experiment [2] the target is unchanged. The experiment is described as follows: Octet epitope binning, sandwich format on HSP70; table row C92F3-5, column C92F3-5 (self pair).
The target is the same in experiment [3]. Nature of the experiment: Octet epitope binning, sandwich format on HSP70; table row N15F2-5 (named as competitor), column C92F3-5; the sheet does not say which of row and column was loaded first.
The target is the same in experiment [4]. Nature of the experiment: Octet epitope binning, sandwich format on HSP70; table row C92F3-5 (named as competitor), column N15F2-5; the sheet does not say which of row and column was loaded first.
Experiment [5] shares this target. Nature of the experiment: Octet epitope binning, sandwich format on HSP70; table row m77A (named as competitor), column N15F2-5; the sheet does not say which of row and column was loaded first.
The target is the same in experiment [6]. Nature of the experiment: Octet epitope binning, sandwich format on HSP70; table row N15F2-5, column N15F2-5 (self pair).

HSP70 (antigen; source and nucleotide state not stated) (Homo sapiens (Human)), sequence (P0DMV8 whole entry): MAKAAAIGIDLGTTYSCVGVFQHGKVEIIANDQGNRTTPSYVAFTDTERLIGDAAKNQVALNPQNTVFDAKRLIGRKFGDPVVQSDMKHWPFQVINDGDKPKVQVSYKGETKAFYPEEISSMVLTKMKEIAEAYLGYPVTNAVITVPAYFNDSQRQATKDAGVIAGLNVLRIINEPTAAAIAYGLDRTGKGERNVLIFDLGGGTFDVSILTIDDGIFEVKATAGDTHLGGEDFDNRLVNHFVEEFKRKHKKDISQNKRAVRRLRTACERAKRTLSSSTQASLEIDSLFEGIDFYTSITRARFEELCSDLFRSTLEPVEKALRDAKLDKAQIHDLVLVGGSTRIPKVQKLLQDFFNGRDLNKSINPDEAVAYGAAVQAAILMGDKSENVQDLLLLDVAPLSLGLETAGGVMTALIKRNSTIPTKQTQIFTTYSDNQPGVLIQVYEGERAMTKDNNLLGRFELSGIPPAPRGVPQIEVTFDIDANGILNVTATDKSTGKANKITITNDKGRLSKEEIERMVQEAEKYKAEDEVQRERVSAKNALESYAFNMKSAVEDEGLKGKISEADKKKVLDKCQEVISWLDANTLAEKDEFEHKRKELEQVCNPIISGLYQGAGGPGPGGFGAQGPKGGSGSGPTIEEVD

As for C92F3-5 (Fisher Scientific) (antibody), the percent of maximal binding in the presence of the potentially competing antibody in experiment [1] worked out at 0.714; in experiment [2] it was 0; in experiment [3] it was 0.492.
Regarding N15F2-5 (Enzo Life Sciences) (antibody), the percent of maximal binding in the presence of the potentially competing antibody in experiment [4] came to 0.489; in experiment [5], 0.738; in experiment [6] it was 0.

The values are drawn from US20230128075A1.
